# How the values were obtained:
# Experiment in all cases: two-hybrid
# [1] = target: DIG10.3 monomer (DIG0), computationally designed digoxigenin-binding protein
# [2] = target: PRO0 (DIG10.3 Y34F, Y99F, Y101F), progesterone ligand-binding domain
# [3] = target: DIG1b (DIG10.3 E83R), charge swap design
# [4] = target: DIG2b (DIG10.3 I102A), knob-in-hole design
substance,measurement,setting,value
"DIG10.3 monomer (DIG0), computationally designed digoxigenin-binding protein (designed binder)",fold increase in luciferase activity with 50 uM digoxigenin,[1],20 fold
"PRO0 (DIG10.3 Y34F, Y99F, Y101F), progesterone ligand-binding domain (designed binder)",fold increase in reporter activity with 1 uM progesterone,[2],200 fold
"DIG1a (DIG10.3 R116E), charge swap design (designed binder)",fold increase in reporter activation with digoxigenin,[3],> 500 fold
"DIG2a (DIG10.3 I102M, V104F), knob-in-hole design (designed binder)",fold increase in reporter activation with digoxigenin,[4],> 500 fold
DIG1 (DIG10.3 E83V) (designed binder),fold activation of the luciferase reporter with digoxigenin,[1],400 fold
same,fold luciferase activity with both ligands over either ligand alone,[2],20 fold

# From publication PMC6317713
